Test results published in US8124583B2, “Composition and method for self-assembly and mineralization of peptide-amphiphiles” (Northwestern University, priority 2002, dated 2012).
Square brackets hold non-standard residues; d marks the D form. * marks the point of attachment. Palmitoyl = CCCCCCCCCCCCCCCC(=O)*; pS = N[C@@H](COP(=O)(O)O)C(=O)O; C16 = 16 carbon alkyl tail

How the values were obtained:
Assay type in all cases: physicochemical
Solubility in water = conditions: for concentration at which the molecules dissolve: pH 7.5-adjusted water
Method: (§1) The two molecules dissolve in pH 7.5-adjusted water at a concentration of about 10 mg/mL. Molecule 1 has a charge of (−1) and molecule 2 has a charge of (+2) under these conditions.
Cleavage and deprotection of the molecules was accomplished with a mixture of trifluoroacetic acid (TFA) and triisopropylsilane (TIS) in a ratio of 95:5 for three hours at room temperature. The cleavage mixture and two subsequent TFA washings were filtered into a round bottom flask. The solution was roto-evaporated to a thick viscous solution. This solution was triturated with cold diethylether. The white precipitate was collected by filtration, washed with copious cold ether and dried under vacuum. The molecules were then dissolved in water at a concentration of 10 mg/mL, adjusting the pH to improve solubility. The solution was initially acidic in both cases. In the case of molecule 1, the pH was raised to about pH 8 with 2M and 100 mM KOH, then back-titrated to pH 7.

[1] = Self assembly/gelation with monovalent salts (KCl, NaCl); conditions: mixing with 200 mM KCl or NaCl solutions
Method: as §1
In all cases self assembled gels comprised of the nanofibers were formed similar to those described elsewhere (Hartgerink et al., 2001; Hartgerink et al., 2002). In contrast no self assembly or gel formation was observed when other negatively or positively charged peptide-amphiphiles were exposed to the NaCl or the KCl at concentrations up to 6 M. The fact that molecules 1 and 2 assemble in the presence of the monovalent salts sets them apart from the other molecules studied. […] The reason for this difference may be in the structure of these molecules. Both these molecules contain IKVAV (SEQ ID NO: 1) sequence at the c-terminus of the peptide segment. […]
Transmission Electron Micrographs of samples of the supramolecular compositions from the multi-dimensional peptide-amphiphiles, Molecule 1 and Molecule 2, were prepared as follows. A small sample of the supramolecular composition gel, prepared in bulk as described above, was smeared onto a holey carbon coated TEM grid (Quantifoil). […]

[2] = Gelation of charged peptide amphiphile solutions with ions or with each other; conditions: positive PA in Ca+2 (reaction 4); negative PA in PO4−3 (reaction 5)
From the text: In another example of this invention, the composition and method consists of using highly charged peptide amphiphile species (16 carbon alkyl tail with a sequence like CCCCGGGSS(P)DS(P)D (SEQ ID NO: 14) with a −7 charge, for example) dissolved in a solution of negative ions (phosphate ions with a −3 charge), call this solution X. A second solution with a positively-charged peptide amphiphile species (such as 16 carbon alkyl tail with a sequence like ACAAGGGKRGDS (SEQ ID NO: 21)—an amine terminated PA at +1 charge) in a solution with positively-charged ions, such as Ca^2+; call this solution Y. In both solutions the peptide heads are charged and the structural element of the peptide can be varied, to give different charged peptide-amphiphile species, depending on the application.
The positive and negative peptide amphiphiles alone (no added salt ions) will gel each other, reaction 1, when mixed in the right ionic ratios (1:7, (−):(+) in this instance), forming mixed peptide amphiphile nanofibers, theoretically composed of 7 positive peptide amphiphiles for every 1 of the negative peptide amphiphiles. The positive peptide amphiphile solution Y may be gelled, reaction 2, with the negative ions (for example a solution containing phosphate ion PO4^−3). […] Mixing the positive and negative ions (calcium cation with phosphate anion) will make calcium phosphate mineral (reaction 6). […]

[3] = Self assembly with CaCl2 and hydroxyapatite mineralization of nanofiber gel (TEM, electron diffraction)
Method: A liquid composition for the self assembly of (1) and mineralization of hydroxyapatite was prepared by dissolving […] NaH2PO4 (Aldrich) into 200 microliters of (1) at a concentration of 10 mg/ml in water. The pH of the solution was adjusted to 7.7.
The liquid composition containing (1) and NaH2PO4 was mixed with 40 micromoles of CaCl2 (Aldrich).
Samples of the gel after 2 hours, 1 day, and 5 days were mounted on carbon-coated TEM grids. TEM studies of the 1 and 5 day samples show a multi-crystalline material composed of plate like crystals˜5 nm thick and 50 to 100 nm long. The plate like crystals were similar to those observed in the mineralization experiments on the pre-assembled template.

Substance | concentration at which the molecules dissolve (Solubility in water) | gel formation with monovalent salt [1] | gelation in ions of the same charge sign [2] | other results
C15H31C(O)-CCCCGGGEIKVAV-NH2 (Palmitoyl-CCCCGGGEIKVAV-NH2; cysteine pairing not given here) [Molecule 2] | about 10 mg/mL | self-supporting gel forms |  | pH dependence of solubility (Solubility in water; water, 10 mg/mL, pH adjusted with KOH): most soluble at low pH
ACAAGGGKRGDS [positively-charged peptide amphiphile, 16 carbon alkyl tail, amine terminated PA] |  |  | does not gel | 
C15H31C(O)-CCCCGGGS(P)RGD-COOH (Palmitoyl-CCCCGGG[pS]RGD-OH; cysteine pairing not given here) [PA 18] |  |  |  | self assembled gel formation ([3]; addition of CaCl2 to 10 mg/ml peptide-amphiphile preloaded with NaH2PO4, pH 7.7): formed immediately; time until gel turned a white color (mineralization started) ([3]; after CaCl2 addition): about 2 hours
C15H31C(O)-CCCCGGGEIKVAV-COOH (Palmitoyl-CCCCGGGEIKVAV-OH; cysteine pairing not given here) [PA 22] | about 10 mg/mL | self-supporting gel forms |  | 
CCCCGGGSS(P)DS(P)D (C16-CCCCGGGS[pS]D[pS]D-OH; cysteine pairing not given here; also: C16 alkyl tail) |  |  | does not gel | 
